Legend:
[1] = system: Ovarian Cancer cell line PA-1; experiment: MTS-PMS cytotoxicity bioassay, PA-1; details: 80 μg/ml; 5000 cells/well
Source text: 5000 cells/well were used for testing.
(§5) The drug Doxorubicin was used as system suitability (SST) reference.

[2] = system: Blood cancer cellline Jurkat E6; experiment: MTS-PMS cytotoxicity bioassay, Jurkat E6; details: 80 μg/ml; 5000 cells/well
Source text: 5000 cells/well were used for testing.
as §5

[3] = system: Blood Cancer Cellline MOLT-3; experiment: MTS-PMS cytotoxicity bioassay, MOLT-3; details: 80 μg/ml; 5000 cells/well
Source text: 5000 cells/well were used for testing.
as §5

[4] = Glycan binding study, O-Glycan array, core 2; details: O-Glycan array containing 94 glycans
[5] = Glycan binding study, N-Glycan array
[6] = system: bladder cancer cells (T24); experiment: Colocalization study in cell organelles by confocal microscopy; type: cell-based; details: FITC-labelled, 100 μg/mL, 2 h, 37° C.
pI of purified protein = type: physicochemical
Source text: The molecular mass and pI of purified protein of SEQ ID NO. 3 and SEQ ID NO.

[7] = Stability of expressed protein in TBS buffer; type: physicochemical; details: for % Single max impurity / % Total impurity / % purity: 10 mM TBS buffer pH 7.8, 2-8° C.
Experimental: Stability of expressed protein i.e., SEQ ID NO. 3 was evaluated for 2 weeks using 10 mM TBS buffer with pH 7.8 at 2-8° C.

[8] = system: human urinary Bladder cancer cell line (T-24); experiment: Cytotoxicity bioassay of conjugate, T-24; type: cell-based; details: 72 hours; Cell titer glow
Experimental: (§1) Bioassay—Cytotoxicity effect Conjugate of Example 8 against ovarian cancer cell line (PA-1) and human urinary Bladder cancer cell line (T-24) was assayed.
(§2) 5,000 cells/well were plated and incubated at 37° C. overnight.
(§3) Conjugates/vehicle control dilutions were made in respective media and added to cells. Volume added: 50 uL to each well. […] Each concentration was analysed in triplicates. Media-only wells was used as a control to calculate percent viability. Cell titer glow reagent (volume: 50 uL) was added to each well, the plate was shaken for 5 mins and the luminescence was recorded. Drug Treatment Time: 72 hours. Percent viability was calculated by dividing the luminescence signal obtained for each treated well by the untreated well (media-only control) and multiplying by 100.
(§4) Data was next transformed using X=Log(x) and then analysed with nonlinear regression (curve fit), Dose Response inhibition−log (inhibitor) vs response (3 parameters) using PRISM software to determine the IC50 value.

[9] = system: ovarian cancer cell line (PA-1); experiment: Cytotoxicity bioassay of conjugate, PA-1; type: cell-based; details: 72 hours; Cell titer glow
Experimental: as §1, §2, §3, §4

B1: SEQ ID NO. 2: recombinant glycan binding protein, variant of Sclerotium Rolfsii Lectin, disclosed in Indian Patent Application 350/MUM/2009 (protein)
chain: TYKITVRVYQTNPDAFFHPVEKTVWKYANGGTWTITDDQHVLTMGGSGTSGTLRFHADNGESFTATFGVHNYKRWCDIVTNLAADETGMVINQQYYSQKNREEARERQLSNYQVKNAKGRNFQIVYTEAEGNDLHANLIIG
[1]
  % Cytotoxicity on Cell-lines PA-1: 81%
[2]
  % Cytotoxicity on Cell-lines Jurkat E6: 61%
[3]
  % Cytotoxicity on Cell-lines MOLT-3: 46%
[4]
  Estimated Kd for core 2: 0.212 µg/mL
[5]
  binding to N-glycans: specific binding to N-glycans containing GlcNac at the non-reducing end
O-Glycan array containing 94 glycans
  Estimated Kd for T antigen: 0.319 µg/mL
O-Glycan array, T-antigen and its extended core structures
  binding profile to O-glycans: strong and broad binding profile to O-glycans
[6]
  colocalization in cell organelles: colocalized in Mitochondria, Endoplasmic reticulum, Golgi bodies and Plasma membrane

B2: SEQ ID NO. 4: SEQ ID NO. 2 re-engineered: Serine at 1st, Glycine at 76th, Serine added at 142nd and Cysteine at 143rd position (protein)
chain: SYKITVRVYQTNPDAFFHPVEKTVWKYANGGTWTITDDQHVLTMGGSGTSGTLRFHADNGESFTATFGVHNYKRWGDIVTNLAADETGMVINQQYYSQKNREEARERQLSNYQVKNAKGRNFQIVYTEAEGNDLHANLIIGSC
pI of purified protein
  pI: 6.49

B3: SEQ ID NO. 3: SEQ ID NO. 2 re-engineered: Serine at 1st position, Glycine at 76th position, Cysteine added at carboxy terminal end (protein)
chain: SYKITVRVYQTNPDAFFHPVEKTVWKYANGGTWTITDDQHVLTMGGSGTSGTLRFHADNGESFTATFGVHNYKRWGDIVTNLAADETGMVINQQYYSQKNREEARERQLSNYQVKNAKGRNFQIVYTEAEGNDLHANLIIGC
[1]
  % Cytotoxicity on Cell-lines PA-1: 82%
[2]
  % Cytotoxicity on Cell-lines Jurkat E6: 68%
[3]
  % Cytotoxicity on Cell-lines MOLT-3: 43%
pI of purified protein
  pI: 6.49
[7]; 0 Week
  % Single max impurity: 1.31%
  % Total impurity: 1.95%
  % purity: 98.05%
[7]; 1 Week
  % Single max impurity: 0.98%
  % Total impurity: 2.66%
  % purity: 97.34%
[7]; 2 Week
  % Single max impurity: 0.86%
  % Total impurity: 2.91%
  % purity: 97.09%
[7]; 2 weeks, 10 mM TBS buffer with pH 7.8 at 2-8° C.
  stability: stable

B4: Conjugate of Example 8: Protein of SEQ ID NO. 3 conjugated to cytotoxic drug MMAE using MC-Val-Cit-PAB-MMAE; DAR value 1.0 (conjugate)
chain: B3 chain
modifications: MC-Val-Cit-PAB-MMAE conjugate, DAR 1.0
notes: DAR value 1.0
[8]
  IC50: 325 nM
[9]
  IC50: 17.7 nM

From patent US20240383950A1, “RECOMBINANT GLYCAN BINDING PROTEINS AND ITS USE” (UNICHEM LABORATORIES LIMITED, priority 2021, published 2024)
